± gives the standard error. For some of these results: Variants at the floor of the assay were thinned out.
B1: glmS ribozyme (parent)
chain: AUAAAAGCGCCAGAACUACAGAAAUGUAGUUGACGAGGAGGAGGUUUAUCGAAUUUUCGGCGGAUGCCUCCAAA

Assays:
Settings in all cases: with glucosamine-6-phosphate
glucosamine-6-phosphate [1] = variants of: B1; experiment: kcat; higher = faster cleavage; RNA array
Summary of the method: (§1)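 Barcoded ribozyme variants on sequenced MiSeq chips were transcribed in situ by E. coli RNA polymerase and followed at 37 °C through a hybridised Cy3 probe. Glucosamine-6-phosphate at 40 μM to 10 mM in HEPES/KCl/Mg(OAc)2 buffer was flowed in, and tiles were imaged over ~14 h. Signals were normalised to baseline and to non-cleaving reference variants, and per-tile medians were fit to one- or two-exponential decays to give kobs. Weighted Michaelis–Menten fits across concentrations gave kcat and KM.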

glucosamine-6-phosphate [2] = variants of: B1; experiment: self-cleavage kobs at 40 uM GlcN6P; higher = faster cleavage; RNA array
Summary of the method: as §1

glucosamine-6-phosphate [3] = variants of: B1; experiment: self-cleavage kobs at 2500 uM GlcN6P; higher = faster cleavage; RNA array
Summary of the method: as §1

glucosamine-6-phosphate [4] = variants of: B1; experiment: self-cleavage kobs at 10000 uM GlcN6P; higher = faster cleavage; RNA array
Summary of the method: as §1

glucosamine-6-phosphate [5] = variants of: B1; experiment: self-cleavage kobs at 640 uM GlcN6P; higher = faster cleavage; RNA array
Summary of the method: as §1

glucosamine-6-phosphate [6] = variants of: B1; experiment: KM; higher = weaker cofactor use; RNA array
Summary of the method: as §1

glucosamine-6-phosphate [7] = variants of: B1; experiment: self-cleavage kobs at 160 uM GlcN6P; higher = faster cleavage; RNA array
Summary of the method: as §1

Variant | kcat (glucosamine-6-phosphate [1]) [s⁻¹] | self-cleavage kobs at 40 uM GlcN6P (glucosamine-6-phosphate [2]) [s⁻¹] | self-cleavage kobs at 2500 uM GlcN6P (glucosamine-6-phosphate [3]) [s⁻¹] | self-cleavage kobs at 10000 uM GlcN6P (glucosamine-6-phosphate [4]) [s⁻¹] | self-cleavage kobs at 640 uM GlcN6P (glucosamine-6-phosphate [5]) [s⁻¹] | KM (glucosamine-6-phosphate [6]) [µM] | self-cleavage kobs at 160 uM GlcN6P (glucosamine-6-phosphate [7]) [s⁻¹]
AUAAAAGCGCCAGAACUACAGAAAUGUAGUUGACGAGGAGGAGGUCUAUCGAAUUUCCGGCGGAUGCCUCCAAA | 9.95e-05 ± 2e-05 | < 1e-05 | 4.88e-05 ± 2e-05 | 7.09e-05 ± 1.8e-05 | – | – | –
AUAAAAGCGCCAGAACUACAGAAAUGUAGUUGACGAGGAGGAGGUCUAUCGAAUUUUAGGCGGAUGCCUCCAAA | 0.000527 ± 0.00012 | – | 7.47e-05 ± 1.3e-05 | 0.00022 ± 3.4e-05 | 2.77e-05 ± 9.7e-06 | – | –
AUAAAAGCGCCAGAACUACAGAAAUGUAGUUGACGAGGAGGAGGUCUAUCGAAUUUUUGGCGGAUGCCUCCAAA | 3.35e-05 ± 5.4e-07 | < 1e-05 | – | 2.93e-05 ± 9e-06 | – | 1400 ± 110 | –
AUAAAAGCGCCAGAACUACAGAAAUGUAGUUGACGAGGAGGAGGUCUAUCGAAUUUUCGGCGGAUGACUCCAAA | 0.000818 ± 0.00012 | 3.57e-05 ± 1.7e-05 | 0.00062 ± 0.00012 | 0.000676 ± 0.00011 | 0.000284 ± 5.6e-05 | 1380 ± 390 | 6.58e-05 ± 2.1e-05
AUAAAAGCGCCAGAACUACAGAAAUGUAGUUGACGAGGAGGAGGUCUAUCGAAUUUUCGGCGGAUGGCUCCAAA | 0.000658 ± 5.5e-05 | – | 0.000431 ± 6.7e-05 | 0.000561 ± 6.7e-05 | 0.000154 ± 5.6e-05 | 1560 ± 320 | 6.94e-05 ± 1.9e-05
AUAAAAGCGCCAGAACUACAGAAAUGUAGUUGACGAGGAGGAGGUCUAUCGAAUUUUCGGCGGAUACCUCCAAA | 0.000975 ± 0.00019 | 5.14e-05 ± 1e-05 | 0.000662 ± 0.00023 | 0.00107 ± 0.00025 | 0.000364 ± 9.2e-05 | 799 ± 250 | –
AUAAAAGCGCCAGAACUACAGAAAUGUAGUUGACGAGGAGGAGGUCUAUCGAAUUUUCGGCGGAUGCCUUCAAA | 0.00656 ± 0.0027 | 0.00017 ± 2.3e-05 | 0.00301 ± 0.00041 | 0.00508 ± 0.00066 | 0.00156 ± 0.00017 | – | 0.00026 ± 3.8e-05
AUAAAAGCGCCAGAACUACAGAAAUGUAGUUGACGAGGAGGAGGUCUAUCGAAUUUUCGGCGGAUGCCCCCAAA | 0.00112 ± 0.0002 | 5.23e-05 ± 2.2e-05 | 0.00117 ± 0.00032 | 0.000936 ± 0.00019 | 0.000644 ± 0.00013 | 644 ± 250 | –
AUAAAAGCGCCAGAACUACAGAAAUGUAGUUGACGAGGAGGAGGUCUAUCGAAUUGUCGGCGGAUGCCUCCAAA | 0.00195 ± 0.00027 | 5.6e-05 ± 9.5e-06 | 0.00128 ± 0.00017 | 0.00164 ± 0.00018 | 0.000736 ± 8.1e-05 | 1390 ± 310 | 0.000159 ± 3e-05
AUAAAAGCGCCAGAACUACAGAAAUGUAGUUGACGAGGAGGAGGUCGAUCGAAUUUUCGGCGGAUGCCUCCAAA | 0.0024 ± 0.00028 | 3.18e-05 ± 8e-06 | 0.0014 ± 0.00026 | 0.00183 ± 0.00026 | 0.000457 ± 8e-05 | 2600 ± 440 | 0.00015 ± 2.6e-05
AUAAAAGCGCCAGAACUACAGAAAUGUAGUUGACGAGGAGGAGGUCUAUCGAUUUUUCGGCGGAUGCCUCCAAA | 0.00168 ± 0.00018 | 3.88e-05 ± 1.2e-05 | 0.0012 ± 0.00023 | 0.00133 ± 0.00028 | 0.000471 ± 9.9e-05 | 1640 ± 260 | 0.000145 ± 3.3e-05
AUAAAAGCGCCAGAACUACAGAAAUGUAGUUGACGAGGAGGAGGUCUAUCGAAUAUUCGGCGGAUGCCUCCAAA | 0.00288 ± 0.00026 | 9.7e-05 ± 1.5e-05 | 0.00248 ± 0.00076 | 0.00247 ± 0.00041 | 0.0011 ± 0.0002 | 1110 ± 150 | –
AUAAAAGCGCCAGAACUACAGAAAUGUAGUUGACGAGGAGGAGGUCUAUCGAAUUUUCGGCGGAGGCCUCCAAA | 0.000138 ± 2.3e-05 | – | 0.000117 ± 2.4e-05 | 0.000113 ± 1.5e-05 | 2.77e-05 ± 1.3e-05 | – | –
AUAAAAGCGCCAGAACUACAGAAAUGUAGUUGACGAGGAGGAGGUCUAUCGAAUUUUCGGCGGAAGCCUCCAAA | 0.00399 ± 0.0019 | 7.93e-05 ± 2.3e-05 | 0.00143 ± 0.00037 | 0.00295 ± 0.00065 | 0.000444 ± 0.00012 | – | –
